Data from article PMC10017041 (Science Advances, 2023).

Legend:
Test in all cases: cryo-EM structure
[1] = biological target: CCT3 subunit of yeast TRiC (S. cerevisiae, UniProt P39077 1-534)
[2] = biological target: CCT4 subunit of yeast TRiC (S. cerevisiae, UniProt P39078 1-528)
[3] = biological target: CCT1 subunit of yeast TRiC (S. cerevisiae, UniProt P12612 1-559)
[4] = biological target: CCT5 subunit of yeast TRiC (S. cerevisiae, UniProt P40413 1-562)
[5] = biological target: CCT2 subunit of yeast TRiC (S. cerevisiae, UniProt P39076 1-527)
[6] = biological target: CCT6 subunit of yeast TRiC (S. cerevisiae, UniProt P39079 1-546)
[7] = biological target: CCT7 subunit of yeast TRiC (S. cerevisiae, UniProt P42943 1-550)
CCT7 subunit of yeast TRiC, sequence (P42943 whole entry): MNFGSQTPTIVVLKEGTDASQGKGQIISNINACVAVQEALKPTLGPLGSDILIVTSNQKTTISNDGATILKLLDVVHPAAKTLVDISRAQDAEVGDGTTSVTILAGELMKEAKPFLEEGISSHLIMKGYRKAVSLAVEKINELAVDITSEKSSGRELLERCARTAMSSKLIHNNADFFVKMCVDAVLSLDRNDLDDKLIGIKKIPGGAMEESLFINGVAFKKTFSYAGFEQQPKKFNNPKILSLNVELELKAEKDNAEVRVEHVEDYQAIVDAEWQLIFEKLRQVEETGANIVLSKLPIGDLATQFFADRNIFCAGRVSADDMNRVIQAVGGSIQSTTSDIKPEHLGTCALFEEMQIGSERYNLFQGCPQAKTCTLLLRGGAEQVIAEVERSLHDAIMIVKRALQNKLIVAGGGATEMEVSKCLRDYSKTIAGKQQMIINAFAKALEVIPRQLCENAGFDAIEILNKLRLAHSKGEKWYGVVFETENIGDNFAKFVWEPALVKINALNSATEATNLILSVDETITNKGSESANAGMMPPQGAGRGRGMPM

CCT5 subunit of yeast TRiC, sequence (P40413 whole entry): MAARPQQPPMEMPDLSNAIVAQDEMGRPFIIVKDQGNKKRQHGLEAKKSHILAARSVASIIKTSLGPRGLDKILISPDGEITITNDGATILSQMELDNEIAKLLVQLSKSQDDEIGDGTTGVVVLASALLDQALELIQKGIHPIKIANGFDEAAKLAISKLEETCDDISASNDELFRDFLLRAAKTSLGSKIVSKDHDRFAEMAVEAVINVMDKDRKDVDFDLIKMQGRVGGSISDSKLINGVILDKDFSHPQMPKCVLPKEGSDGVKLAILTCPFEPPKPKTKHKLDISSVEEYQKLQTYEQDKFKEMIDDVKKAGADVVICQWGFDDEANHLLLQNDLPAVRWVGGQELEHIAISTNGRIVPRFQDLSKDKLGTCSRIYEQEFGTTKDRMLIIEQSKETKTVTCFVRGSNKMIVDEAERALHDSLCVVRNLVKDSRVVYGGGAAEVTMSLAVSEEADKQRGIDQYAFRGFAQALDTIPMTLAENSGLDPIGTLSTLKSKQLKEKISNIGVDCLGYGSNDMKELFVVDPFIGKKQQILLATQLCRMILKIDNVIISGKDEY
CCT3 subunit of yeast TRiC, sequence (P39077 whole entry): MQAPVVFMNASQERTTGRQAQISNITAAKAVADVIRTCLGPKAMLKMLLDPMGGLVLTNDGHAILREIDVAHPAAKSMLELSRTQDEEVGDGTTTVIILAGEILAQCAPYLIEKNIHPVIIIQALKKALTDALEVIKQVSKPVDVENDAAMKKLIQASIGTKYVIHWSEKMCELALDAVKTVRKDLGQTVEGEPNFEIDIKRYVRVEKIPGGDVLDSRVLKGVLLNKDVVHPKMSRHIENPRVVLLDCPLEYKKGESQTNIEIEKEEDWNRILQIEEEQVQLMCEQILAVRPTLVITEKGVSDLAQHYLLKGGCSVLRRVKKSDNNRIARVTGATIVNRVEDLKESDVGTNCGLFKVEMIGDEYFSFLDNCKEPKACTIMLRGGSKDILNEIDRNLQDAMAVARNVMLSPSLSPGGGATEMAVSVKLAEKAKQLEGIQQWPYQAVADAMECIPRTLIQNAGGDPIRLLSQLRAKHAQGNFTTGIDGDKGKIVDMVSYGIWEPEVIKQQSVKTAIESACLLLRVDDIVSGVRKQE
CCT4 subunit of yeast TRiC, sequence (P39078 whole entry): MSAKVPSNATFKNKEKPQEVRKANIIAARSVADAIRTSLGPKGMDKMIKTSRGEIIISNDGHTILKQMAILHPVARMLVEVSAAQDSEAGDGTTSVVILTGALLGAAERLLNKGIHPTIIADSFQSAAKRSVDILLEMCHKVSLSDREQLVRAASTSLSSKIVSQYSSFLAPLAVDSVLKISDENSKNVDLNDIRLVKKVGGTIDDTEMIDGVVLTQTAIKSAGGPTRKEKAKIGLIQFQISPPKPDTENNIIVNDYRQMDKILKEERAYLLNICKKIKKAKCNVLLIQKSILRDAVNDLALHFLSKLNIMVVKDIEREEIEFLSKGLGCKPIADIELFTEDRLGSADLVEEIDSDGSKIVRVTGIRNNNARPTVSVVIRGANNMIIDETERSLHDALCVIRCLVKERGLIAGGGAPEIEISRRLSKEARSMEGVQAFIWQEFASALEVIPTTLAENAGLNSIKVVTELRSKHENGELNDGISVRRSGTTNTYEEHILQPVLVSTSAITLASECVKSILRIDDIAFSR
CCT6 subunit of yeast TRiC, sequence (P39079 whole entry): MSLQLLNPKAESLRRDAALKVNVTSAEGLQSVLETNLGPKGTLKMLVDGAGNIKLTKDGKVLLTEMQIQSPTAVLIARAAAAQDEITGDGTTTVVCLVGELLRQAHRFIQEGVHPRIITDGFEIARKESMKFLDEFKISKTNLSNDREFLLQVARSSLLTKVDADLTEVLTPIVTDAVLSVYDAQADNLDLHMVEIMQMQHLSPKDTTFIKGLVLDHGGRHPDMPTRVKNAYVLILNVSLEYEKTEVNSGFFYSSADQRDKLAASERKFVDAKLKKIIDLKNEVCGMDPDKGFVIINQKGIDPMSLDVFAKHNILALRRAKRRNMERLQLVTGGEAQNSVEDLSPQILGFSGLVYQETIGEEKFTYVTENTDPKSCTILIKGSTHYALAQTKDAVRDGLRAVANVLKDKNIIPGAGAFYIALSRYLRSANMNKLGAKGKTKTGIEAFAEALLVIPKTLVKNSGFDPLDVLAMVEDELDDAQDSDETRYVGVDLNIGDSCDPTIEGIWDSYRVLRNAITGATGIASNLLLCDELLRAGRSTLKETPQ
CCT2 subunit of yeast TRiC, sequence (P39076 whole entry): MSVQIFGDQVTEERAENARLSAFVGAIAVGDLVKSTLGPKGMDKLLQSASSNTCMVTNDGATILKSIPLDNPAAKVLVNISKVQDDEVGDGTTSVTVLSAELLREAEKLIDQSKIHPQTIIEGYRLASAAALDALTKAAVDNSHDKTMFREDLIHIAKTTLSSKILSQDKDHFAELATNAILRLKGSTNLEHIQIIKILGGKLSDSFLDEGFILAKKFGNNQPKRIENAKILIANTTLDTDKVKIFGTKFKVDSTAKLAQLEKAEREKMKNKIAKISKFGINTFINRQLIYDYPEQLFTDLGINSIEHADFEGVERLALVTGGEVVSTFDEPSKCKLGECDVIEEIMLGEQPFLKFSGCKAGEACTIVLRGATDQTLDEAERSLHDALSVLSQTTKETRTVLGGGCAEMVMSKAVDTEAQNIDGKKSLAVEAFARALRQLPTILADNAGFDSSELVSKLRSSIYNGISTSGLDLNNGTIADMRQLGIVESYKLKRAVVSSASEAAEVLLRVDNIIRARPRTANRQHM
CCT1 subunit of yeast TRiC, sequence (P12612 whole entry): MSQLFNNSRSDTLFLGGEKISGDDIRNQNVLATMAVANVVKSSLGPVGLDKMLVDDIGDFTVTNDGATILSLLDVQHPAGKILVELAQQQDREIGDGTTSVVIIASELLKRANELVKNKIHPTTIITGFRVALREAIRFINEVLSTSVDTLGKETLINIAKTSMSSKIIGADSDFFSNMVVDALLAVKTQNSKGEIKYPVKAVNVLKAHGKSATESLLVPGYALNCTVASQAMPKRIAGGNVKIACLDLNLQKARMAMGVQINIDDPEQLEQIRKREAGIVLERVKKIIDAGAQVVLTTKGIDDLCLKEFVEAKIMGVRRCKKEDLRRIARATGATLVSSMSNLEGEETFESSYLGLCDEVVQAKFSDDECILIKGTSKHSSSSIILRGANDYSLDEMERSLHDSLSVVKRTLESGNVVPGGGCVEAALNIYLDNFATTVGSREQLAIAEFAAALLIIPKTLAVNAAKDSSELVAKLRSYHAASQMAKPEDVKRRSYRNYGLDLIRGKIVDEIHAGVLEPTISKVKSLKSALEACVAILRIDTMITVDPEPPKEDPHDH

- binding result [1]: binds
- binding result [2]: binds
- binding result [3]: binds
- binding result [4]: binds
- binding result [5]: binds
- binding result [6]: binds
- binding result [7]: binds
B1: yeast plp2 (homolog of PhLP2 in Saccharomyces cerevisiae) (natural protein, S. cerevisiae)
chain: MQNEPMFQVQVDESEDSEWNDILRAKGVIPERAPSPTAKLEEALEEAIAKQHENRLEDKDLSDLEELEDDEDEDFLEAYKIKRLNEIRKLQERSKFGEVFHINKPEYNKEVTLASQGKKYEGAQTNDNGEEDDGGVYVFVHLSLQSKLQSRILSHLFQSAACKFREIKFVEIPANRAIENYPESNCPTLIVYYRGEVIKNMITLLELGGNNSKMEDFEDFMVKVGAVAEGDNRLIMNRDDEESREERKLHYGEKKSIRSGIRGKFNVGIGGNDDGNINDDDDGFFD
